# Experiment: soluble on expression in E. coli; label from the status in PepcDB or PDB records
row,Sequence,soluble on expression in E. coli
1,MLIFGFIGLFFLNIFSLHAQGIVTNKDAQEEFKWALNSYNNGIYDDALLSFKKILSFDPNNLDYHFWTGNVYYRLGYVEEALMEWRNLKDQGYKVPYLRHLISTIEQRRGIFSNYELNFKKLVKVASLDNSIYKRPHGYQITSLRADKYGGYYAANFVGNEILYFDVNNNVNALVKDGFSYLKSPYDVIEANNLLYVTLYSSDEIGVYDKVLGVKRKSIGNKGTKDGELLAPQYMAIDKRNYIYVSEWGNKRVSKFGLEGDFILHFGSRTSGYKGLLGPTGVTYLNENIYVADSLRNTIEVFDTSGNHLYSVFTSIEGIEGLSSDFVGNNVIVSSKDGVYKYSIAKKTITKILKADKMNSKISSSILDANNQMIVSDFNNAKVSVYKSDASLYDSLNVDVRRIIRLGGPKIYVELNVSSKSGLPVVGLKSENFSISNENYYIVNPKVAYNVNASKDINIAVVFDKSSYMKKYDTDQIVGLNALMELSKNKNFSFINATSVPIIDNIESLTNSIRNTSSLGPYSTDAVKTDVSLKLAGSGLMSKSSRRAVVYFSGGILNRKAFEKYSLDTIVSYYKNNDIRFYLILFGNDPINSKLQYLVNETGGAVIPFSSYEGVSKVYDLILEQKTGTYLLEYYYPGPQEPNKYFNLSVEANINQQTGRGEFAYFINLEHHHHHH,not soluble
2,MPTENELKIYLKRWDKKYGLTYKVLDILQTVFYRSDATREAFVEMCGDLDVQKLTFDSYLYKTVVPANPITQLKITAKTIGSLIRGNALAPLEHHHHHH,not soluble
3,MGSDKIHHHHHHVTLDQLLMFRTVAEAGSLKAASNKLHKTQPAISQSIKQLESQLDLILFNREGYRLAITEQGRKLLQHTLRVLNEAQEMKQVAKHLAKGNEASITLAFEASFNLARILPILELTQNEFPYTQIILKQEFLTGALEALNQDKAEIIISAGGIEPIRSSHLELAYLFSGSLLDVAAPRLLSRYPNLSHVRELVNEYQIVIQDTGTGTANIEFGVQAGQRRWYVNDFYTKKMLIQSGMGWGKLPHYMIEDSLKQGALIALDLRERQNNIQLDYYVMRKPHSPLGPVAQALWQKLIAFSLS,not soluble
4,MPVGPPVPPKPSTPIMNGERLGEYGVGGHIGNGDVVPERRGILPASLREKINQKKELEGRATPSIEPDLVGRDRYDKASRCFSYVPAKSMQEAFERPRRTSFSRAIEKRENSVENVSQEEVARTEIPQSYQQNDISTPAKWDEQVEDAKQSALLEELARAPSAMQHNYWGNGEVDNVQVVDQAQRAVITPTSTLQRRPKPPARSGSYRTLNDDAYCSDMDELCDPEYYLNYNSNTAPLPPPRRQEQHAGTRSVQLPRKKMNFDAVTDPLDDVLESTKRLGSAYSVGDVRGGQQQQQEQHNASNDFNFSNTLNNTPTDYRQHYRNRNCQSVTTPRNHHFSTPSREQEADAADTWLSGKLKKVRSKRDIDPDIVRRRTQEKMLLEELKDSAANNDENQHNLPNGHARGAGLQNIDPLAEFRREEERLRNTRSPYGEERWRGRMRGKPPTPPPRESSASPVNSLPRGTPAHHMDRQRHNQSVPLPMHHRQFDEDFDVNSLFNFSHDPRQQSTTLERGGRSLSRGARIQDAYYASQQDLSANNRFNSGQERVAAAIYRAETAHRDMYASGTINRAETPGRYFPENSAVLERSSTPSFPVSRATPLPFHPLLYNNGERGGSGHAAGGGGGGHNGYSTMNNRSASPRLFGGSSTLSRRSSVNSVDILSEILILQTSYLSCSYILLYLWNFYSLAFASNFKTMSDTATTSTTVVIHLKRSNHDDASASATTAQLQQRSRYCDVSLASSEESSDLSDAEEKDDLIRRTITSSSKDTMEEGDDDDEEEFDDVVMEEDVGGGTDANEQFSRVIQRQISGAGGGILKKSNGKDTSEIIHHHPLFVKDTSKYWYKPTISREQAINMLRDKPPGTFVVRDSNSFPGAFGLALKVSTPPPGVNPGDGSELVRHFLIEPSPKGVKLKGCNNEPVFGSLSALVYQHSITALALPTKLVLPDFDPAATPEHLSATQALLEQGAACNVVYVGSVDVESLTGNECVKRSIATCSQRAINGDSRAVSVHFKVSSQGVTLTDNTRKVFFRRHFNVQSVIFAGMDPIERRFENTRALGFHDGCIAQARLFAFVARIPSSSENACHVFAELEPEQPGSAVVNFINKVMLAQKNRS,not soluble
5,PRRGPVAKRDVLPDPIYNSKLVTRLINKIMIDGKKSKAQKILYTAFDIIRERTGKDPMEVFEQALKNVMPVLEVRARRVGGANYQVPVEVRPDRRVSLGLRWLVQYARLRNEKTMEERLANEIMDAANNTGAAVKKREDTHKMAEANKAFAHYRW,soluble
6,MSDDARFQQLNCWLDSCLPELFVAEGWGEVPPAELIPASSDASFRRYFRWQGGDRSLVVMDAPPPQEDCRPFVKVAGLLAGAGVHVPRILAQDLENGFLLLSDLGRQTYLDVLHPGNADELFEPALDALIAFQKVDVAGVLPAYDEAVLRRELQLFPDWYLARHLGVELEGETLARWKRICDLLVRSALEQPRVFVHRDYMPRNLMLSEPNPGVLDFQDALHGPVTYDVTCLYKDAFVSWPEPRVHAALNRYWKKATWAGIPLPPSFEDFLRASDLMGVQRHLKVIGIFARICHRDGKPRYLGDVPRFFRYLETAVARRPELAELGELLASLPQGAEA,not soluble
7,MAAMPKPAAFWNDRFANEEYVYGEAPNRFVASAARTWLPEAGEVLLLGAGEGRNAVHLAREGHTVTAVDYAVEGLRKTERLATEAGVEVEAIQADVREWKPARAWDAVVVTFLHLPADERPGLYRLVQRCLRPGGRLVAEWFRPLEHHHHHH,not soluble
8,MSIETFTPTPLLFTPGAANKVKTLIDEEGNPRLKLRVFVTGGGCSGFQYGFTFDEDIADDDTVIERDGVGLVVDPMSFQYLAGSEVDYQEGLEGSRFVIKNPNAATTCGCGQSFSI,not soluble
9,MNLFQNLALKYSHTMMEKSLQKGFNVELLKQPEEKIPKQDKSYMLYAHVPFCHTFCPYCSFHKYYYDENLAKVYFQNLREEIKIMKNKGFDFTSMYVGGGTTLIDEEELLKTLELCKKLFNIKEISCESDPNHIDPNKLSMFKGIIDRLSCGIQSFDDETLKKVARYNKFGSSKELQEKISKALGILPIFSIDLIFNLPGQNEKQLLNDLEIAKNLAPQQITTYPLMKSNLTKDNIAKSLGVSIKDNEFTYYQIIREFFKDYTQNNGWSFSLEKNKLNDEYVSSHHEYLGVGSGAFSFLDGELLINAFNLNDYAKFIQEKQNANIAKACFDKKEIIKYVFLTGIFSGKIEIDKFNKTLNCNLEKELFIELLGLKTSGAIIKDQNALIATEFGQYLFVVLMKDFYTGMDLVRAVFRDDKRLKNKDYIDIMKENIDPLNSASMEFKAETN,not soluble
10,DAYIGVLIDDLVTKGTNEPYRLLTSRAEYRLLLRHDNADLRLTDMGYELGMISEERYARFNEKRQQIDAEIKRLSDIRIKPNEHTQAIIEQHGGSRLKDGILAIDLLRRPEMTYDIILEILEEEHQLNADVEEQVEIQTKYEGYINKSLQQVEKVKRMEEKKIPEDLDYSKIDSLATEAREKLSEVKPLNIAQASRISGVNPADISILLIYLEQG,not soluble
11,MPTITTKTPVKGLIFNIQKFSINDGPGIRTVVFFKGCPLRCKWCSNPESQSGEQESMYDEQTAKQTIVGDYMTVDDIMKVILQDKDFYEESGGGVTFSGGEVLFQASFAIELAKAVKAAGINLACETTGYARPKVFNEFMSYMDFMYYDCKQWDPAQHRIGTGADNGVILRNLATAVQAHQKMMVRIPVIPGFNYTLNDADHFGQLFNQIGVTEVELLPFHQFGLKKYQDLGRKYALVNVKQLQADDLIDYAEHIRAHGVKVRVNGW,not soluble
12,PSTLLKNYQDNNKMLVLALENEKSKVKEAQDIILQLRKECYYLTCQL,soluble
13,MGSDKIHHHHHHMTEMNHSVPDDMLMGYASGSLAKAFDLVLATHVSLNDDARARLETFEALGGAILCGMDTVDVDDDSLEQTMAKIRGNAPIERPAPSEGLFPTPLQSMVGGDVDAVRWRSVGGGVKQCVLHSDDGGTVRLLSIAAGRAMPAHSHHGTEMTLVLQGAYRDDDGIFARGDLELADTDTNHQPVAEPGQDCICLVATNAKLKFQGLLPRIAQPFLGI,not soluble
14,SLPHPAPGPADAEDPRLAEVMAAVRSSRRYQSVAPETVRRLAANALVASRGDLAEAVKRTKRSLHEVFGAYLPSPPKYDALLRQLRDAVDAGDDEAVRAVLHRAMSTHASTRERLPILEEFYREVFARLDAPTSVRDLACGMNPLAAPWMPGSDAFTYHASDIDTRLTEFLAAALETLGVAHDVRVRDLMTGVGEVATDVTLLLKTLPCIEAQGRGQGWDLIDAIRSPVVVVSFPTKSLGQRSKGMFNTYSANFGAWLENRPHDVEQVEFRNELVYFVRKNA,soluble
15,MKKIMILVAVISFFSFSDDIKIDRAVKESITKDFDQDGKYSAYEKALRKAQESIYVTLPEHRGYWYSTLDKIKAEEEELLPDETARMRRR,not soluble
16,MGSDKIHHHHHHLRMSRIQARLLQAIVRPALKTNLLKHAAWRVVLKLRNEFAHAVPPVELETTFDENIRILTSLSDHIESQVFWQGFQEADEGVILLLKRFLPSDGSFIDVGANIGTFTLVAAHRAVRGQVHAFEPSAHHFARLAHNVELNDFKNVALNRKGLYDQPGEAVLFLPSQTGEMNNSGAASLYTSALEETRQVSEAVSLIRLDDYVREKSIGRVDIIKIDIEGAELKALEGARETIARFRPLVFMELDLDNLERAERSPEEVLQYWKSLNYEVSIILLTGETVPVTSPKEFGLHQNLQCRPF,not soluble
17,MGSDKIHHHHHHMRIDIDAFNVLQVLVEEGSFAKASERLHKAQSAVSYQVKKLEQHLGVTLFNRDHYRAELTPEGKVILAEGQRLLQHLANIEHLASRFSQGWEPKLELVIDGALPMEPIMTALKRMSEHNIPTKVQLNMEFLGGVQHRFERDQADLMLVKDYRTGPSYHPKPLPTITSVLVASSQHPLSLLKEISLPELQQHVELTIEDSSPGKRDRDEMQFGGDKVFYLSGFIMKKNALLKGLGFGWMPDFLIAEELHQRQLIEVDFIGGNRFSFTPQLVSTLERPLGRAGQLFTELILEEFAQYQLQHQSGLSGAGLG,not soluble
18,MGSSHHHHHHMRVDGREKTELRHIHIHTNYLKHPEGSVLIEVGDTKVICSATIEERVPPFMRGEGKGWVTAEYAMIPRATEQRTIRESSKGKVTGRTMEIQRLIGRALRAVVDLEALGERTVWIDCDVIQADGGTRTASITGAYVAMVLAFEKLLQAEKVSKIPVKDYLAATSVGIVEEQGVVLDLNYAEDSKADVDMNVIMTGKGQFVEVQGTGEEATFSRAQLNELLDAAEQGIFQLIDIQKEALGDIVSHIE,soluble
19,MSLTHGDVMLLATSFAPGSSNIIYQVIDELVNYFKKFLFTVNYDSELTTIADCFDLLNIPKDHPSRNLTDTFYLDKNRLLRTHCTAATLRAVKETKKSNNPDIRIASFGAVFRKDDDDATHSHQFNQLDFMWIKKDFSLTNLKWFMQNMINHIFGENTSARFRLSHFPFTEPSFEIDIRCWLCQNGCGVCKKTRWIEVLGAGILHPQVMANMGFSDTDNIRGIAAGIGIERLVMLKHGISDIRDLYDNNFKFLAQFTEGHHHHHH,not soluble
20,MKMISTIQKKETVMVAPIPAKRGRKPAVATAPATGQVQSLTRGLKLLEWIAESNGSVALTELAQQAGLPNSTTHRLLTTMQQQGFVRQVGELGHWAIGAHAFMVGSSFLQSRNLLAIVHPILRNLMEESGETVNMAVLDQSDHEAIIIDQVQCTHLMRMSAPIGGKLPMHASGAGKAFLAQLSEEQVTKLLHRKGLHAYTHATLVSPVHLKEDLAQTRKRGYSFDDEEHALGLRCLAACIFDEHREPFAAISISGPISRITDDRVTEFGAMVIKAAKEVTLAYGGMR,soluble
21,MNIFVNMRIMVAHTPDPDDAFMFYGMFEGKIRTSNQYEQVIKDIETLNKESKEGKYEVTAISANGYVQVRDLYKLTRSGASFGISYGPIVVARNEIDLSKSRMGVPGFMTSSYLLYRMFGPEAKEYVEIKFDEIPDAILTGKVDAGILIHDEQLTFQKRGLKEVFDIYSAWKSYAGNLPIPLGFNAIRKDLDEDTVNKFLYDFERSIRYAMAHEEEAVKYAMKYARYTDLDLERRFVRMYVNELSIDFGDTGRKALELYYNRAAGKGLIPPFKPEIV,not soluble

# — the DeepSol protein solubility set
